In US20100099610A1 (published 2010):

Assays:
hGHQ40N = hGHQ40N (human, UniProt P01241 27-217); test: cell-based or functional assay
hGHQ141N = hGHQ141N (human, UniProt P01241 27-217); test: cell-based or functional assay
Chain of hGHQ141N (P01241 27-217 Q167N): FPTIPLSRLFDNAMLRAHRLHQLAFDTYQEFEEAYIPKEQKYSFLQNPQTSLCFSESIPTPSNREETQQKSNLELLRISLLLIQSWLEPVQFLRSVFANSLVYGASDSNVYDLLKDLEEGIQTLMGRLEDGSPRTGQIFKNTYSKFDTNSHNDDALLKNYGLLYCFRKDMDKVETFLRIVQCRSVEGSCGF

Chain of hGHQ40N (P01241 27-217 Q66N): as the sequence (P01241 27-217 Q167N) above, with Q40N, N141Q counted along it

| Binder | RSA Q141 (hGHQ40N) | RSA Q40 (hGHQ141N) |
| --- | --- | --- |
| S. ladakanum GlyPro-TGase mutant S250M (enzyme) GPDSDERVTPPAEPLDRMPDPYRPSYGRAETIVNNYIRKWQQVYSHRDGRKQQMTEEQREWLSYGCVGVTWVNSGQYPTNRLAFAFFDEDKYKNELKNGRPRSGETRAEFEGRVAKDSFDEAKGFQRARDVASVMNKALENAHDEGAYLDNLKKELANGNDALRNEDARSPFYSALRNTPSFKDRNGGNHDPSKMKAVIYSKHFWSGQDRSGSSDKRKYGDPEAFRPDRGTGLVDMSRDRNIPRSPTSPGEMFVNFDYGWFGAQTEADADKTVWTHGNHYHAPNGSLGAMHVYESKFRNWSDGYSDFDRGAYVVTFVPKSWNTAPDKVKQGWP | 3.25 relative to wild type TGase | 2.22 relative to wild type TGase |
| S. ladakanum GlyPro-TGase mutant S250V (enzyme) GPDSDERVTPPAEPLDRMPDPYRPSYGRAETIVNNYIRKWQQVYSHRDGRKQQMTEEQREWLSYGCVGVTWVNSGQYPTNRLAFAFFDEDKYKNELKNGRPRSGETRAEFEGRVAKDSFDEAKGFQRARDVASVMNKALENAHDEGAYLDNLKKELANGNDALRNEDARSPFYSALRNTPSFKDRNGGNHDPSKMKAVIYSKHFWSGQDRSGSSDKRKYGDPEAFRPDRGTGLVDMSRDRNIPRSPTSPGEVFVNFDYGWFGAQTEADADKTVWTHGNHYHAPNGSLGAMHVYESKFRNWSDGYSDFDRGAYVVTFVPKSWNTAPDKVKQGWP | 0.96 relative to wild type TGase | 0.51 relative to wild type TGase |
| S. ladakanum GlyPro-TGase mutant Y75L (enzyme) GPDSDERVTPPAEPLDRMPDPYRPSYGRAETIVNNYIRKWQQVYSHRDGRKQQMTEEQREWLSYGCVGVTWVNSGQLPTNRLAFAFFDEDKYKNELKNGRPRSGETRAEFEGRVAKDSFDEAKGFQRARDVASVMNKALENAHDEGAYLDNLKKELANGNDALRNEDARSPFYSALRNTPSFKDRNGGNHDPSKMKAVIYSKHFWSGQDRSGSSDKRKYGDPEAFRPDRGTGLVDMSRDRNIPRSPTSPGESFVNFDYGWFGAQTEADADKTVWTHGNHYHAPNGSLGAMHVYESKFRNWSDGYSDFDRGAYVVTFVPKSWNTAPDKVKQGWP | 0.18 relative to wild type TGase | 0.06 relative to wild type TGase |
| S. ladakanum GlyPro-TGase mutant Y62T (enzyme) GPDSDERVTPPAEPLDRMPDPYRPSYGRAETIVNNYIRKWQQVYSHRDGRKQQMTEEQREWLSTGCVGVTWVNSGQYPTNRLAFAFFDEDKYKNELKNGRPRSGETRAEFEGRVAKDSFDEAKGFQRARDVASVMNKALENAHDEGAYLDNLKKELANGNDALRNEDARSPFYSALRNTPSFKDRNGGNHDPSKMKAVIYSKHFWSGQDRSGSSDKRKYGDPEAFRPDRGTGLVDMSRDRNIPRSPTSPGESFVNFDYGWFGAQTEADADKTVWTHGNHYHAPNGSLGAMHVYESKFRNWSDGYSDFDRGAYVVTFVPKSWNTAPDKVKQGWP | 0.19 relative to wild type TGase | 0.1 relative to wild type TGase |
| S. ladakanum GlyPro-TGase mutant S250R (enzyme) GPDSDERVTPPAEPLDRMPDPYRPSYGRAETIVNNYIRKWQQVYSHRDGRKQQMTEEQREWLSYGCVGVTWVNSGQYPTNRLAFAFFDEDKYKNELKNGRPRSGETRAEFEGRVAKDSFDEAKGFQRARDVASVMNKALENAHDEGAYLDNLKKELANGNDALRNEDARSPFYSALRNTPSFKDRNGGNHDPSKMKAVIYSKHFWSGQDRSGSSDKRKYGDPEAFRPDRGTGLVDMSRDRNIPRSPTSPGERFVNFDYGWFGAQTEADADKTVWTHGNHYHAPNGSLGAMHVYESKFRNWSDGYSDFDRGAYVVTFVPKSWNTAPDKVKQGWP | 0.83 relative to wild type TGase | 0.59 relative to wild type TGase |
| S. ladakanum GlyPro-TGase mutant Y75M (enzyme) GPDSDERVTPPAEPLDRMPDPYRPSYGRAETIVNNYIRKWQQVYSHRDGRKQQMTEEQREWLSYGCVGVTWVNSGQMPTNRLAFAFFDEDKYKNELKNGRPRSGETRAEFEGRVAKDSFDEAKGFQRARDVASVMNKALENAHDEGAYLDNLKKELANGNDALRNEDARSPFYSALRNTPSFKDRNGGNHDPSKMKAVIYSKHFWSGQDRSGSSDKRKYGDPEAFRPDRGTGLVDMSRDRNIPRSPTSPGESFVNFDYGWFGAQTEADADKTVWTHGNHYHAPNGSLGAMHVYESKFRNWSDGYSDFDRGAYVVTFVPKSWNTAPDKVKQGWP | 0.18 relative to wild type TGase | 0.1 relative to wild type TGase |
| S. ladakanum GlyPro-TGase mutant Y75C (enzyme) GPDSDERVTPPAEPLDRMPDPYRPSYGRAETIVNNYIRKWQQVYSHRDGRKQQMTEEQREWLSYGCVGVTWVNSGQCPTNRLAFAFFDEDKYKNELKNGRPRSGETRAEFEGRVAKDSFDEAKGFQRARDVASVMNKALENAHDEGAYLDNLKKELANGNDALRNEDARSPFYSALRNTPSFKDRNGGNHDPSKMKAVIYSKHFWSGQDRSGSSDKRKYGDPEAFRPDRGTGLVDMSRDRNIPRSPTSPGESFVNFDYGWFGAQTEADADKTVWTHGNHYHAPNGSLGAMHVYESKFRNWSDGYSDFDRGAYVVTFVPKSWNTAPDKVKQGWP | 0.18 relative to wild type TGase | 0.06 relative to wild type TGase |
| S. ladakanum GlyPro-TGase mutant Y62M (enzyme) GPDSDERVTPPAEPLDRMPDPYRPSYGRAETIVNNYIRKWQQVYSHRDGRKQQMTEEQREWLSMGCVGVTWVNSGQYPTNRLAFAFFDEDKYKNELKNGRPRSGETRAEFEGRVAKDSFDEAKGFQRARDVASVMNKALENAHDEGAYLDNLKKELANGNDALRNEDARSPFYSALRNTPSFKDRNGGNHDPSKMKAVIYSKHFWSGQDRSGSSDKRKYGDPEAFRPDRGTGLVDMSRDRNIPRSPTSPGESFVNFDYGWFGAQTEADADKTVWTHGNHYHAPNGSLGAMHVYESKFRNWSDGYSDFDRGAYVVTFVPKSWNTAPDKVKQGWP | 0.28 relative to wild type TGase | 0.1 relative to wild type TGase |

More lines, now with the values ahead:

| RSA Q141 (hGHQ40N) | RSA Q40 (hGHQ141N) | Binder |
| --- | --- | --- |
| 0.18 relative to wild type TGase | 0.05 relative to wild type TGase | S. ladakanum GlyPro-TGase mutant Y62N (enzyme) GPDSDERVTPPAEPLDRMPDPYRPSYGRAETIVNNYIRKWQQVYSHRDGRKQQMTEEQREWLSNGCVGVTWVNSGQYPTNRLAFAFFDEDKYKNELKNGRPRSGETRAEFEGRVAKDSFDEAKGFQRARDVASVMNKALENAHDEGAYLDNLKKELANGNDALRNEDARSPFYSALRNTPSFKDRNGGNHDPSKMKAVIYSKHFWSGQDRSGSSDKRKYGDPEAFRPDRGTGLVDMSRDRNIPRSPTSPGESFVNFDYGWFGAQTEADADKTVWTHGNHYHAPNGSLGAMHVYESKFRNWSDGYSDFDRGAYVVTFVPKSWNTAPDKVKQGWP |
| 1.92 relative to wild type TGase | 1.62 relative to wild type TGase | S. ladakanum GlyPro-TGase mutant S250Q (enzyme) GPDSDERVTPPAEPLDRMPDPYRPSYGRAETIVNNYIRKWQQVYSHRDGRKQQMTEEQREWLSYGCVGVTWVNSGQYPTNRLAFAFFDEDKYKNELKNGRPRSGETRAEFEGRVAKDSFDEAKGFQRARDVASVMNKALENAHDEGAYLDNLKKELANGNDALRNEDARSPFYSALRNTPSFKDRNGGNHDPSKMKAVIYSKHFWSGQDRSGSSDKRKYGDPEAFRPDRGTGLVDMSRDRNIPRSPTSPGEQFVNFDYGWFGAQTEADADKTVWTHGNHYHAPNGSLGAMHVYESKFRNWSDGYSDFDRGAYVVTFVPKSWNTAPDKVKQGWP |
| 0.2 relative to wild type TGase | 0.07 relative to wild type TGase | S. ladakanum GlyPro-TGase mutant Y62L (enzyme) GPDSDERVTPPAEPLDRMPDPYRPSYGRAETIVNNYIRKWQQVYSHRDGRKQQMTEEQREWLSLGCVGVTWVNSGQYPTNRLAFAFFDEDKYKNELKNGRPRSGETRAEFEGRVAKDSFDEAKGFQRARDVASVMNKALENAHDEGAYLDNLKKELANGNDALRNEDARSPFYSALRNTPSFKDRNGGNHDPSKMKAVIYSKHFWSGQDRSGSSDKRKYGDPEAFRPDRGTGLVDMSRDRNIPRSPTSPGESFVNFDYGWFGAQTEADADKTVWTHGNHYHAPNGSLGAMHVYESKFRNWSDGYSDFDRGAYVVTFVPKSWNTAPDKVKQGWP |
| 3.99 relative to wild type TGase | 1.86 relative to wild type TGase | S. ladakanum GlyPro-TGase mutant S250P (enzyme) GPDSDERVTPPAEPLDRMPDPYRPSYGRAETIVNNYIRKWQQVYSHRDGRKQQMTEEQREWLSYGCVGVTWVNSGQYPTNRLAFAFFDEDKYKNELKNGRPRSGETRAEFEGRVAKDSFDEAKGFQRARDVASVMNKALENAHDEGAYLDNLKKELANGNDALRNEDARSPFYSALRNTPSFKDRNGGNHDPSKMKAVIYSKHFWSGQDRSGSSDKRKYGDPEAFRPDRGTGLVDMSRDRNIPRSPTSPGEPFVNFDYGWFGAQTEADADKTVWTHGNHYHAPNGSLGAMHVYESKFRNWSDGYSDFDRGAYVVTFVPKSWNTAPDKVKQGWP |
| 4.23 relative to wild type TGase | 2.57 relative to wild type TGase | S. ladakanum GlyPro-TGase mutant S250A (enzyme) GPDSDERVTPPAEPLDRMPDPYRPSYGRAETIVNNYIRKWQQVYSHRDGRKQQMTEEQREWLSYGCVGVTWVNSGQYPTNRLAFAFFDEDKYKNELKNGRPRSGETRAEFEGRVAKDSFDEAKGFQRARDVASVMNKALENAHDEGAYLDNLKKELANGNDALRNEDARSPFYSALRNTPSFKDRNGGNHDPSKMKAVIYSKHFWSGQDRSGSSDKRKYGDPEAFRPDRGTGLVDMSRDRNIPRSPTSPGEAFVNFDYGWFGAQTEADADKTVWTHGNHYHAPNGSLGAMHVYESKFRNWSDGYSDFDRGAYVVTFVPKSWNTAPDKVKQGWP |
| 2.43 relative to wild type TGase | 1.3 relative to wild type TGase | S. ladakanum GlyPro-TGase mutant S250W (enzyme) GPDSDERVTPPAEPLDRMPDPYRPSYGRAETIVNNYIRKWQQVYSHRDGRKQQMTEEQREWLSYGCVGVTWVNSGQYPTNRLAFAFFDEDKYKNELKNGRPRSGETRAEFEGRVAKDSFDEAKGFQRARDVASVMNKALENAHDEGAYLDNLKKELANGNDALRNEDARSPFYSALRNTPSFKDRNGGNHDPSKMKAVIYSKHFWSGQDRSGSSDKRKYGDPEAFRPDRGTGLVDMSRDRNIPRSPTSPGEWFVNFDYGWFGAQTEADADKTVWTHGNHYHAPNGSLGAMHVYESKFRNWSDGYSDFDRGAYVVTFVPKSWNTAPDKVKQGWP |
| 1.71 relative to wild type TGase | 0.95 relative to wild type TGase | S. ladakanum GlyPro-TGase mutant S250Y (enzyme) GPDSDERVTPPAEPLDRMPDPYRPSYGRAETIVNNYIRKWQQVYSHRDGRKQQMTEEQREWLSYGCVGVTWVNSGQYPTNRLAFAFFDEDKYKNELKNGRPRSGETRAEFEGRVAKDSFDEAKGFQRARDVASVMNKALENAHDEGAYLDNLKKELANGNDALRNEDARSPFYSALRNTPSFKDRNGGNHDPSKMKAVIYSKHFWSGQDRSGSSDKRKYGDPEAFRPDRGTGLVDMSRDRNIPRSPTSPGEYFVNFDYGWFGAQTEADADKTVWTHGNHYHAPNGSLGAMHVYESKFRNWSDGYSDFDRGAYVVTFVPKSWNTAPDKVKQGWP |
